According to the supplement of paper PMC10724198:
± gives the standard deviation of the averaged measurements.

How the values were obtained:
[1] = tested on: Saccharomyces cerevisiae; assay: protein stability index of tFT-peptide fusion (C-terminal peptide) (PSI (0-1 scale)); higher = more stable (slower turnover)
Protocol: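 MPS profiling in S. cerevisiae of the tFT-X12 degron library: putative degron peptides plus stable controls, 12 aa, fused to the C-terminus of a sfGFP-mCherry timer. Cells are FACS-sorted into 8 mCherry/sfGFP bins and deep-sequenced. PSI runs from 0 (unstable) to 1 (stable). Backgrounds are wild type, das1Δ and doa10Δ at 30 °C, and wild type, das1Δ, cdc34-1 and cdc53-1 at 37 °C; 2-3 technical replicates each.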

[2] = tested on: Saccharomyces cerevisiae; assay: as above; conditions: genetic background: wild type; temperature: 30 C
[3] = genetic background: cdc34-1, temperature: 37 C
[4] = genetic background: cdc53-1, temperature: 37 C
[5] = genetic background: das1 deletion, temperature: 30 C
[6] = genetic background: das1 deletion, temperature: 37 C
[7] = genetic background: doa10 deletion, temperature: 30 C
[8] = genetic background: wild type, temperature: 30 C
[9] = genetic background: wild type, temperature: 37 C
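Further: PSI is a weighted mean of sequencing reads over stability bins, variants kept only with over 10 reads, mCherry proximal and sfGFP distal, peptide attached via GGGS linker.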

| Sequence | protein stability index [1, 3] | protein stability index [1, 4] | protein stability index [1, 5] | protein stability index [1, 6] | protein stability index [1, 7] | protein stability index [1, 8] | protein stability index [1, 9] | protein stability index [2] |
| --- | --- | --- | --- | --- | --- | --- | --- | --- |
| AKVFGLILVLLT | 0.211 ± 0.026 | 0.349 ± 0.027 | 0.227 ± 0.023 | 0.407 ± 0.025 | 0.201 ± 0.017 | 0.205 ± 0.024 | 0.3711 ± 0.0013 | 0.334 ± 0.022 |
| GRVFSSFFLYIS | 0.051 ± 0.02 | 0.0556 ± 0.0033 | 0.112 ± 0.011 | 0.184 ± 0.011 | 0.14 ± 0.0057 | 0.0543 ± 0.017 | 0.0883 ± 0.017 | 0.0831 ± 0.0098 |
| GGVSPRSSMDLL | 0.6849 ± 0.0066 | 0.764 ± 0.01 | 0.646 ± 0.023 | 0.736 ± 0.029 | 0.648 ± 0.0075 | 0.645 ± 0.012 | 0.7319 ± 0.0035 | 0.434 ± 0.21 |
| ERWSPWIVVFTN | 0.464 ± 0.015 | 0.505 ± 0.012 | 0.421 ± 0.034 | 0.612 ± 0.024 | 0.173 ± 0.019 | 0.185 ± 0.022 | 0.278 ± 0.029 | 0.278 ± 0.029 |
| TRSLLFANRCIV | 0.66 ± 0.047 | 0.706 ± 0.033 | 0.619 ± 0.017 | 0.737 ± 0.0079 | 0.269 ± 0.0075 | 0.304 ± 0.025 | 0.503 ± 0.009 | 0.396 ± 0.014 |
| TPLLPPSPPPSR | 0.647 ± 0.02 | – | 0.27 ± 0.02 | 0.46 ± 0.0089 | 0.244 ± 0.0028 | 0.277 ± 0.017 | 0.4348 ± 0.0042 | 0.3328 ± 0.0026 |
| NYVFRIIIVLDA | 0.269 ± 0.01 | 0.408 ± 0.11 | 0.267 ± 0.035 | 0.429 ± 0.042 | 0.227 ± 0.059 | 0.245 ± 0.011 | 0.349 ± 0.031 | 0.444 ± 0.0058 |
| FLSVLPLFAFFA | 0.581 ± 0.026 | 0.658 ± 0.045 | 0.552 ± 0.025 | 0.68 ± 0.028 | 0.219 ± 0.011 | 0.258 ± 0.014 | 0.4221 ± 0.0032 | 0.333 ± 0.0081 |
| SLLFLVLFFPLV | 0.4885 ± 0.00069 | 0.524 ± 0.025 | 0.42 ± 0.034 | 0.55 ± 0.029 | 0.456 ± 0.019 | 0.43 ± 0.03 | 0.506 ± 0.0075 | 0.432 ± 0.023 |
| SFLACFVLAFFC | 0.4055 ± 0.00023 | 0.478 ± 0.018 | 0.346 ± 0.032 | 0.475 ± 0.011 | 0.24 ± 0.0037 | 0.281 ± 0.017 | 0.411 ± 0.022 | 0.372 ± 0.014 |
| VVRVSFSFCLSC | 0.476 ± 0.023 | 0.498 ± 0.045 | 0.48 ± 0.029 | 0.459 ± 0.021 | 0.408 ± 0.026 | 0.388 ± 0.029 | 0.425 ± 0.024 | 0.373 ± 0.015 |
| SWCLLVWIGGVF | 0.288 ± 0.038 | 0.376 ± 0.033 | 0.295 ± 0.027 | 0.451 ± 0.02 | 0.251 ± 0.01 | 0.264 ± 0.03 | 0.432 ± 0.017 | 0.388 ± 0.094 |
| SVLALLWVGCWL | 0.355 ± 0.0064 | 0.4238 ± 0.0021 | 0.271 ± 0.045 | 0.478 ± 0.017 | 0.253 ± 0.0065 | 0.265 ± 0.029 | 0.452 ± 0.028 | 0.378 ± 0.055 |
| GSLHVISVVGML | 0.696 ± 0.012 | 0.709 ± 0.019 | 0.592 ± 0.016 | 0.695 ± 0.018 | 0.393 ± 0.0045 | 0.439 ± 0.018 | 0.595 ± 0.014 | 0.52 ± 0.034 |
| SRVSEFVIPLGR | 0.7038 ± 0.0057 | 0.7389 ± 0.0046 | 0.622 ± 0.018 | 0.7555 ± 0.0021 | 0.644 ± 0.023 | 0.6473 ± 0.0059 | 0.71 ± 0.016 | 0.719 ± 0.033 |
| RGSRLVPRLLRP | 0.686 ± 0.028 | 0.705 ± 0.012 | 0.648 ± 0.015 | 0.713 ± 0.0012 | 0.64 ± 0.02 | 0.656 ± 0.03 | 0.677 ± 0.0057 | 0.71 ± 0.024 |
| FLFFMGVGVVLY | 0.285 ± 0.032 | 0.382 ± 0.029 | 0.314 ± 0.025 | 0.452 ± 0.023 | 0.35 ± 0.039 | 0.325 ± 0.025 | 0.425 ± 0.0071 | 0.295 ± 0.013 |
| SSVCVLVSCVLG | 0.462 ± 0.019 | 0.5241 ± 0.0032 | 0.375 ± 0.037 | 0.5353 ± 0.0013 | 0.363 ± 0.013 | 0.382 ± 0.022 | 0.5117 ± 0.00052 | 0.4818 ± 0.0031 |
| VFFPCRLLPLLF | 0.517 ± 0.0066 | 0.585 ± 0.0073 | 0.479 ± 0.03 | 0.595 ± 0.026 | 0.1658 ± 0.0011 | 0.167 ± 0.014 | 0.286 ± 0.01 | 0.27 ± 0.023 |
| AWVLISNRRRIM | 0.62 ± 0.071 | 0.747 ± 0.011 | 0.648 ± 0.033 | 0.745 ± 0.025 | 0.187 ± 0.0092 | 0.216 ± 0.029 | 0.502 ± 0.095 | 0.262 ± 0.065 |
